Assay results as given in publication PMC2859679 (Journal of molecular biology, 2009).

Target: the molecule itself
Assay: crystal structure

B1: MhuD (mycobacterial heme utilization, degrader), Rv3592, from Mycobacterium tuberculosis (enzyme)
chain: MPVVKINAIEVPAGAGPELEKRFAHRAHAVENSPGFLGFQLLRPVKGEERYFVVTHWESDEAFQAWANGPAIAAHAGHRANPVATGASLLEFEVVLDVGGTGKTA
B1: binds.
